# From US20230131338A1 (Regeneron, published 2023)
# B1: REGN9933 (antibody, human IgG4 S228P, kappa, V domains shown)
# VH: EVQLVESGGGLVQPGGSLRLSCAASGFTFSNYAMNWVRQAPGKGLDWVSFIRSGGDTTYYADSVKGRFTISRDNSKNTLYLQMNSLRAEDTAVYYCAKVHPYTWDYGDAFDIWGQGTMVTVSS
# VL: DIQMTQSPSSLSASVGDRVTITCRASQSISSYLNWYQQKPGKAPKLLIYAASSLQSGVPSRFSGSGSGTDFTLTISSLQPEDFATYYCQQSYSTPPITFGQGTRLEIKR
# notes: Fully human; hinge-stabilized IgG4 (IgG4P) Fc; also called H4H29790P2; subject anti-FXI mAb
# Experiments:
# [1] = target: T1, cynomolgus monkey FXI (in pooled cynomolgus monkey plasma) (cynomolgus monkey, UniProt A0A2K5VVW4 19-624); experiment: cell-based or functional assay
# [2] = target: T1, cynomolgus monkey FXI (in pooled …); experiment: cell-based or functional assay; remark: listed apart in the source
# [3] = target: recombinant mouse FXI with C-terminal myc-myc-hexahistidine tag (mFXI.mmH) (mouse, UniProt Q91Y47 19-624, limits assumed); experiment: SPR, REGN9933 surface-captured, 25°C, pH 7.4
# [4] = target: recombinant rabbit FXI with C-terminal myc-myc-hexahistidine tag (rbFXI.mmH) (rabbit, UniProt G1SSQ6 19-623); experiment: SPR, REGN9933 surface-captured, mmH-tagged protein injected, 25°C, pH 7.4, 1:1 steady-state model
binder,measurement,setting,value
B1,"concentration at which aPTT doubles relative to baseline, pooled cynomolgus monkey plasma",[1],1.1 µM
same,"Fold Increase in Clotting Time (aPTT w/EA), maximum change, monkey plasma",[2],2.1 fold
same,"TGA % ETP (induced w/EA), relative to baseline, monkey plasma",[2],66%
same,"TGA % Peak Thrombin (induced w/EA), relative to baseline, monkey plasma",[2],43%
same,"TGA Fold Increase in Lag Time (induced w/EA), maximum change, monkey plasma",[2],2.2 fold
same,binding result,[3],no binding (tested: 50 nM)
same,Kd,[4],171 nM
